The target of experiment [1] is T1, Activin A (ligand of the Activin 2B Receptor/SMAD reporter assay) (UniProt P08476 311-426).
T1 sequence (looked up): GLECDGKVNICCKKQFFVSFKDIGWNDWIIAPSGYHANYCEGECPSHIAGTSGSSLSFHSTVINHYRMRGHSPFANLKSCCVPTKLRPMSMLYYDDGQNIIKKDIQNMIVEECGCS
The experiment is described as follows: cell-based or functional assay.

A further experiment has as its target T2, BMP10 (UniProt O95393 317-424).
T2 sequence (looked up): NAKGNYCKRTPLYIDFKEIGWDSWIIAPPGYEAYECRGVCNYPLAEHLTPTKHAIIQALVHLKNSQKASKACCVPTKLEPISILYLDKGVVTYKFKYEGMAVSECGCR
Nature of the experiment: Octet BLI, IgG, avid. For orientation: In BLI a coated tip is dipped into the sample, and binding shifts an interference pattern.

For the next experiment, the target named is T3, Human GDF10 (human, UniProt P55107 369-478).
T3 sequence (looked up): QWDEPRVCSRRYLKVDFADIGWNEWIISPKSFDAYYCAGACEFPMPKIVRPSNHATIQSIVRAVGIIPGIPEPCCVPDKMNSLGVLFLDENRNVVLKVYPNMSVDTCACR
Nature of the experiment: Octet BLI, IgG, avid.

For another experiment, the target named is T4, Human GDNF (human, UniProt P39905 78-211).
T4 sequence (looked up): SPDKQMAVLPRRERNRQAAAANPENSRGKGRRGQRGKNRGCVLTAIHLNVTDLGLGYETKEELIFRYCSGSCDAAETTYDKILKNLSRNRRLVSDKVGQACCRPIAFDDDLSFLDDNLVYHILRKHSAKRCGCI
The experiment is described as follows: Octet BLI, IgG, avid.

The target of another experiment is Human GDF11 (human, UniProt O95390 299-407). The experiment is described as follows: Octet BLI, IgG, avid.
Human GDF11, sequence (O95390 299-407 limits assumed): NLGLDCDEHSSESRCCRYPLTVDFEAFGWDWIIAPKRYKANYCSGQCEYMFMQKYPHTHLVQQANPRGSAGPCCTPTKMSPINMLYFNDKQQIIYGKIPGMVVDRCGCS
A further experiment deals with T5, BMP9 (UniProt Q9UK05 320-429).
T5 sequence (looked up): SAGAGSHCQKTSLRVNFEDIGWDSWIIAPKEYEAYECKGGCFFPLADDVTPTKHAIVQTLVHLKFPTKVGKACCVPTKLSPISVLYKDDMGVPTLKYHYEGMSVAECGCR
The experiment is described as follows: Octet BLI, IgG, avid.

The target of the next experiment is T6, GDF15 Fc (UniProt Q99988 197-308, limits assumed).
T6 construct: not shown: Fc part
T6 sequence (looked up): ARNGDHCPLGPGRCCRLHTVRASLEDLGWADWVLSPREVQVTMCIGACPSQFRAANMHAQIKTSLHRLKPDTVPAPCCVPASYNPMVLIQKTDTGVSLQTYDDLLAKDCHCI
The experiment is described as follows: Octet BLI, IgG, avid.

For the next experiment, the target named is Human GDF8 (human, UniProt O14793 267-375). Nature of the experiment: Octet BLI, IgG, avid.
Experiment [2] deals with T7, Activin B (UniProt P09529 293-407).
T7 sequence (looked up): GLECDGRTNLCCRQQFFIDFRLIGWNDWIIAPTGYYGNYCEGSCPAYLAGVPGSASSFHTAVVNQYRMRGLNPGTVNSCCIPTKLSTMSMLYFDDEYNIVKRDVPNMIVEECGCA
The experiment is described as follows: Octet BLI, IgG, avid.

Experiment [3] has as its target T7, Activin B. The experiment is described as follows: cell-based or functional assay.
Experiment [4] concerns the target T8, Human Activin A Fc (human, UniProt P03970 309-424 (pig entry)).
T8 construct: also called human Activin A-Fc fusion; human Activin A-Fc antigen; not shown: Fc part
T8 sequence: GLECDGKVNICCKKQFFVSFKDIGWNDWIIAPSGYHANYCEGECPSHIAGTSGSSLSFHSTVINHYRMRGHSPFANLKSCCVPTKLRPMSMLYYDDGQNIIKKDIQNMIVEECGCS
The experiment is described as follows: Octet BLI, IgG, avid.

In experiment [5] the target is T8, Human Activin A Fc. The experiment is described as follows: KD with 0.1% BSA, method not stated; with 0.1% BSA.
The target of experiment [6] is T9, Human GDF-11 Fc (human, UniProt O95390 299-407, limits assumed).
T9 construct: not shown: Fc part
T9 sequence (O95390 299-407 limits assumed): as the sequence (O95390 299-407 limits assumed) above
Nature of the experiment: KD with 0.1% BSA, method not stated.

In experiment [7] the target is T10, Human Activin B Fc (human, UniProt P09529 293-407, limits assumed).
T10 construct: not shown: Fc part
T10 sequence (looked up): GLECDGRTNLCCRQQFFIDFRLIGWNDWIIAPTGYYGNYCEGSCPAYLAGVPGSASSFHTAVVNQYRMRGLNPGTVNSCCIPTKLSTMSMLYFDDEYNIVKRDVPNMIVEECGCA
Nature of the experiment: KD with 0.1% BSA, method not stated.

Experiment [8] deals with T8, Human Activin A Fc. The experiment is described as follows: KD with 5% HSA, method not stated.
Experiment [9] deals with T10, Human Activin B Fc. The experiment is described as follows: KD with 5% HSA, method not stated.
For experiment [10], the target named is T8, Human Activin A Fc. The experiment is described as follows: KD with 0.1% HSA, method not stated.
Experiment [11] has as its target T9, Human GDF-11 Fc. Nature of the experiment: KD with 0.1% HSA, method not stated.
For experiment [12], the target named is T10, Human Activin B Fc. Nature of the experiment: KD with 0.1% HSA, method not stated.
In experiment [13] the target is T11, biotinylated Human Activin A (human, UniProt P03970 309-424 (pig entry), biotinylated (EZ-Link Sulfo-NHS-Biotinylation Kit)).
T11 sequence: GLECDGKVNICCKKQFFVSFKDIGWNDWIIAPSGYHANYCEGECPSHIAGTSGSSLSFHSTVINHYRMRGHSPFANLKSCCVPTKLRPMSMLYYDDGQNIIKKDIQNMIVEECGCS
The experiment is described as follows: SPR (Biacore 8K), antigen captured, Fab analyte; second, unlabelled row under Clone B (Rmax 38.1). The protocol:
(§1) Kinetic analysis was conducted at 25° C. in HBS-EP+ running buffer (10 mM HEPES pH 7.4, 150 mM NaCl, 3 mM EDTA, 0.05% Surfactant P20) using a Biacore 8K optical biosensor (Cytiva, Marlborough, MA). The sample compartment was maintained at 10° C. for the duration of the experiment. The Biacore 8K can analyze up to 8 separate interactions in a single cycle.
Each experiment cycle began with an injection (300 s at 2 μL/min) overflow cells 1 and 2 of a 1:100 solution of biotin CAPture reagent (Cytiva) in running buffer. This was followed by an injection (45 s at 10.0 μL/min) of biotinylated human ACTIVIN A (5 nM) overflow cell 2. Upon capture of ACTIVIN A to the sensor surface, a single concentration of Fab ranging from 0.111-81.0 nM was injected (300 s at 30 μL/min) overflow cells 1 and 2. The dissociation of the antibodies were monitored for 3420 s. […] Several blank buffer samples were injected (300 s at 30 μL/min) overflow cells 1 and 2 throughout the duration of the experiment and used for reference surface subtraction—each were monitored for the same amount of dissociation time (3420 s) and regenerated under the same conditions as those for the Fab sample injections.
(§2) The anti-Activin antibodies identified in Example 1 were characterized. First, binding kinetics of the anti-Activin antibodies was assessed with a Surface Plasmon Resonance assay (Biacore).
(In general: Surface plasmon resonance follows binding to a sensor surface in real time, without labels.)

Experiment [14] concerns the target T8, Human Activin A Fc. The experiment is described as follows: Octet BLI, Fab, monovalent.
Experiment [15] deals with T11, biotinylated Human Activin A. The experiment is described as follows: SPR (Biacore 8K), antigen captured, Fab analyte. The protocol:
as §1
Each experiment cycle began with an injection (300 s at 2 μL/min) overflow cells 1 and 2 of a 1:100 solution of biotin CAPture reagent (Cytiva) in running buffer. This was followed by an injection (45 s at 10.0 μL/min) of biotinylated human ACTIVIN A (5 nM) overflow cell 2. Upon capture of ACTIVIN A to the sensor surface, a single concentration of Fab ranging from 0.111-81.0 nM was injected (300 s at 30 μL/min) overflow cells 1 and 2. The dissociation of the antibodies were monitored for 3420 s. Finally, an injection (120 s at 10 μL/min) of regeneration solution (6 M Guanidine-HCl in 0.25 M NaOH) overflow cells 1 and 2 prepared the sensor surface for another cycle. Several blank buffer samples were injected (300 s at 30 μL/min) overflow cells 1 and 2 throughout the duration of the experiment and used for reference surface subtraction—each were monitored for the same amount of dissociation time (3420 s) and regenerated under the same conditions as those for the Fab sample injections.
as §2

Experiment [16] has as its target T8, Human Activin A Fc. The experiment is described as follows: KD with 0.1% BSA, method not stated.

Several values for one entry are separate records, joined by “and”; a condition that tells them apart may be missing. Identical values can stand only once.

B1: anti-Activin A antibody Clone L (IgG) (antibody, V domains shown)
VH: QVQLQESGPGLVKPSETLSLTCAVSGYSISSGYYWGWIRQPPGKGLEWIGSIYHSGSTYYNPSLKSRVTISVDTSKNQFSLKLSSVTAADTAVYYCAREAGSGYWYLSVYGMDVWGQGTTVTVSS
VL: EIVLTQSPATLSVSPGERATLSCRASQSVSSNLAWYQQKPGQAPRLLIYGASTRATGIPARFSGSGSGTEFTLTISSLQSEDFAVYYCQQSDDWPWTFGGGTKVEIKR
notes: IgG format; also called Antibody L
As for B1, the “Activin A-ActRIIB SMAD IC50 pM” value in [1] came out at 200 pM. In addition, the binding result with BMP10, with Human GDF10, with Human GDNF, with Human GDF11, with BMP9 and in the experiment with GDF15 Fc was “no binding (tested: 100 nM antigen)” each time. In addition, in the experiment with Human GDF8, the binding result is recorded as “no binding (tested: 100 nM antigen)”. In addition, the dissociation constant Kd (in general, the free concentration of one partner at which half of the binding sites on the other are occupied at equilibrium, for simple one-to-one binding) was 241 nM with Activin B [2] and 1.57 nM with Human Activin A Fc [4]. For the same molecule, the “Activin B-ActRIIB SMAD IC50 pM” value with Activin B [3] was > 100000 pM.

B2: anti-Activin A antibody Clone B (IgG) (antibody, V domains shown)
VH: QVQLVQSGAEVKKPGASVKVSCKASGYTFIGYDMHWVRQAPGQGLEWMGVINPSSGGTNYAQKFQGRVTMTRDTSISTAYMELSRLRSDDTAVYYCARARDIAALGLGAFDYWGQGTLVTVSS
VL: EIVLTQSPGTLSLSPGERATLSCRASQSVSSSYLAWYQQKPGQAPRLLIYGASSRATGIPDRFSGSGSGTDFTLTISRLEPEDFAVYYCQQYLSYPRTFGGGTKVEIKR
notes: IgG format; also called Antibody B
In the case of B2, the binding result with BMP10, with Human GDF10, in the experiment with Human GDNF, with BMP9, with GDF15 Fc and in the experiment with Human GDF8 was “no binding (tested: 100 nM antigen)” throughout. Besides, the equilibrium dissociation constant (Kd) in the experiment with Human GDF11 worked out at 21 nM; in the experiment with Activin B [2], 46.8 nM; in the experiment with Human Activin A Fc [5], 0.138 nM; with Human GDF-11 Fc [6], 18.9 nM; in the experiment with Human Activin B Fc [7], 3.37 nM; with Human Activin A Fc [4], 0.527 nM. In addition, the Kd with Human Activin A Fc [8] worked out at 0.217 nM; with Human Activin B Fc [9], 10 nM; with Human Activin A Fc [10], 0.138 nM; with Human GDF-11 Fc [11], 18.3 nM; with Human Activin B Fc [12], 2.96 nM.

B3: Fab of anti-Activin A antibody Clone B (Fab, V domains shown)
VH: QVQLVQSGAEVKKPGASVKVSCKASGYTFIGYDMHWVRQAPGQGLEWMGVINPSSGGTNYAQKFQGRVTMTRDTSISTAYMELSRLRSDDTAVYYCARARDIAALGLGAFDYWGQGTLVTVSS
VL: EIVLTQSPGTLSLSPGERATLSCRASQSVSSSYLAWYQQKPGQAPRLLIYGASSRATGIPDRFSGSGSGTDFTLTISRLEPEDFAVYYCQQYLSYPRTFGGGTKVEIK
notes: Fab format; only VH and VL are tied to the clone; also called Fab of Clone B
Molecule B3 returned a Kd in experiment [13] of 6.17 pM. Besides, binding in the experiment with Human Activin A Fc [14] was put at a Kd of 0.309 nM. Moreover, in [15], the Kd worked out at 9.81 pM; the koff – broadly, the first-order rate constant of dissociation – is 2.27e-05 s⁻¹ and 1.58e-05 s⁻¹; the kon (in general, the second-order rate constant of association) is 2.31e+06 M⁻¹ s⁻¹ and 2.56e+06 M⁻¹ s⁻¹.

B4: anti-Activin A antibody Clone Q (IgG) (antibody, V domains shown)
VH: QVQLVQSGAEVKKPGSSVKVSCKASGGSFSPYTWSWVRQAPGQGLEWMGGIIPISGTANTAQKFQGRVTITADESTSTAYMELSSLRSEDTAVYYCARGGPLSGWRASYYYWGQGTLVTVSS
VL: not shown
notes: IgG format; also called Antibody Q
In the case of B4, the binding result with BMP10, with Human GDF10, with Human GDNF, with Human GDF11, in the experiment with BMP9 and with GDF15 Fc was “no binding (tested: 100 nM antigen)” throughout. Also, the binding result with Human GDF8 and in the experiment with Activin B [2] was “no binding (tested: 100 nM antigen)” in each case. Further, the Kd amounted to 0.128 nM with Human Activin A Fc [16], 0.585 nM with Human Activin A Fc [4], 0.189 nM in the experiment with Human Activin A Fc [8] and 0.156 nM in the experiment with Human Activin A Fc [10].

B5: anti-Activin A antibody Clone I (IgG) (antibody, V domains shown)
VH: QVQLVQSGAEVKKPGSSVKVSCKASGGTFSNYAISWVRQAPGQGLEWMGYIIPFFGTANYAQKFQGRVTITADESTSTAYMELSSLRSEDTAVYYCARGGSGYSTSWGSSLYWGQGTLVTVSS
VL: EIVLTQSPGTLSLSPGERATLSCRASQSVSSSYLAWYQQKPGQAPRLLIYGASYRATGIPDRFSGSGSGTDFTLTISRLEPEDFAVYYCLQSGVFPYTFGGGTKVEIKR
notes: IgG format; also called Antibody I
Consider B5, for which the “Activin A-ActRIIB SMAD IC50 pM” value in experiment [1] was 1.09 pM. Moreover, the binding result with BMP10, with Human GDF10, in the experiment with Human GDNF, with Human GDF11, with BMP9 and with GDF15 Fc was “no binding (tested: 100 nM antigen)” each time. The binding result in the experiment with Human GDF8 and with Activin B [2] was “no binding (tested: 100 nM antigen)” each time. In the experiment with Activin B [3], the “Activin B-ActRIIB SMAD IC50 pM” value turned out to be 52400 pM. Also, binding with Human Activin A Fc [4] was put at a Kd of 0.536 nM.

Values taken from patent publication US20260265358A1 (BYOMASS, published 2026).
